The record followed here is PMC6144824.

The target of the experiment is mitoribosome large subunit (mtLSU, 39S) (human (endogenous in HEK293T and 143B)). The experiment can be described thus: co-sedimentation.

Regarding “MTG1 (human mitochondrial ribosome assembly GTPase), endogenous (natural protein)”, the percent of total MTG1 co-sedimenting with mtLSU markers was found to be 10%.
